± gives the standard deviation of the averaged measurements.
Tested on: Saccharomyces cerevisiae
Experiment: protein stability index of tFT-peptide fusion (C-terminal peptide) (PSI (0-1 scale)); higher = more stable (slower turnover)
Conditions: temperature: 30 C
Experimental: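 MPS profiling in S. cerevisiae of the yeast C-terminome library: the last 12 aa of each annotated ORF are fused to the C-terminus of a sfGFP-mCherry timer, after a GGGS linker. Cells are FACS-sorted into 8 mCherry/sfGFP bins and deep-sequenced. PSI runs from 0 (unstable) to 1 (stable); wild type and das1Δ backgrounds, two technical replicates each.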

[1] = genetic background: das1 deletion

Row | Sequence | protein stability index [1] | protein stability index (genetic background: wild type)
1 | TKVYFLGRDSSV [NDE2 C-terminal 12 aa] | 0.688 ± 0.013 | 0.6764 ± 0.0011
2 | VDIRSFRQDMDL [YJR056C C-terminal 12 aa] | 0.703 ± 0.021 | 0.664 ± 0.017
3 | LASALKELQDAA [YHR112C C-terminal 12 aa] | 0.691 ± 0.0097 | 0.682 ± 0.031
4 | CMKAVILYSEQM [ATE1 C-terminal 12 aa] | 0.675 ± 0.012 | 0.6847 ± 0.0021
5 | KMKQRKLTPGDS [CMC4 C-terminal 12 aa] | 0.691 ± 0.018 | 0.65 ± 0.0073
6 | TRGPRRKLPTRV [BSP1 C-terminal 12 aa] | 0.6863 ± 0.0066 | 0.672 ± 0.06
7 | KMIESLKSKLKE [CIN5 C-terminal 12 aa] | 0.693 ± 0.02 | 0.686 ± 0.027
8 | REITKCKQIFHK [PTR3 C-terminal 12 aa] | 0.691 ± 0.02 | 0.686 ± 0.028
9 | LNNFKFKTNSKQ [XBP1 C-terminal 12 aa] | 0.713 ± 0.027 | 0.679 ± 0.022
10 | PAAIKQAIASNV [TRX2 C-terminal 12 aa] | 0.659 ± 0.0072 | 0.657 ± 0.0098
11 | EVVKRYLKMRQD [PUP3 C-terminal 12 aa] | 0.7 ± 0.011 | 0.5999 ± 0.0049
12 | YGVPDAELKIVG [DGA1 C-terminal 12 aa] | 0.719 ± 0.02 | 0.672 ± 0.019
13 | YDEDEGSDYDFI [SUP45 C-terminal 12 aa] | 0.6992 ± 0.0034 | 0.684 ± 0.012
14 | TSSQYEGVALGM [EAF3 C-terminal 12 aa] | 0.695 ± 0.013 | 0.669 ± 0.0083
15 | NTVELLNIPLTS [YLR345W C-terminal 12 aa] | 0.6555 ± 0.0055 | 0.649 ± 0.0043
16 | ALPLPDEDDADL [GSP1 C-terminal 12 aa] | 0.673 ± 0.02 | 0.715 ± 0.011
17 | EDTVNDKANFEG [STL1 C-terminal 12 aa] | 0.673 ± 0.015 | 0.655 ± 0.015

Row | Sequence | protein stability index [1] | protein stability index (genetic background: wild type)
18 | LNDIGDPTKTVQ [YPL025C C-terminal 12 aa] | 0.689 ± 0.0087 | 0.705 ± 0.0072
19 | TVSSVESVLAHL [AHP1 C-terminal 12 aa] | 0.728 ± 0.016 | 0.7489 ± 0.0029
20 | DISDKIRRMQSR [MGP12 C-terminal 12 aa] | 0.692 ± 0.0073 | 0.777 ± 0.16
21 | IRDEGLNNLDTA [YPL257W C-terminal 12 aa] | 0.6944 ± 0.006 | 0.704 ± 0.019
22 | GIMVSPMKTNQR [SWI5 C-terminal 12 aa] | 0.708 ± 0.025 | 0.6993 ± 0.0062
23 | ELERDITISREY [MIP1 C-terminal 12 aa] | 0.701 ± 0.028 | 0.698 ± 0.068
24 | CNVCLFPDMYAR [CTF19 C-terminal 12 aa] | 0.71 ± 0.01 | 0.727 ± 0.039
25 | QRERINNYISVY [VMA6 C-terminal 12 aa] | 0.352 ± 0.02 | 0.388 ± 0.0092
26 | LKIKVHIYRMKR [YHL015W-A C-terminal 12 aa] | 0.597 ± 0.021 | 0.5995 ± 0.0016
27 | LNEYSKDPPGNN [RAD18 C-terminal 12 aa] | 0.704 ± 0.018 | 0.707 ± 0.021
28 | IDEMYRGGISMN [AIM32 C-terminal 12 aa] | 0.693 ± 0.013 | 0.69 ± 0.024
29 | KNEEDSTYFSNV [PMR1 C-terminal 12 aa] | 0.6935 ± 0.0013 | 0.698 ± 0.027
30 | RDMVELMKFYEL [HOS1 C-terminal 12 aa] | 0.715 ± 0.0096 | 0.6886 ± 0.0047
31 | LKLEQKIGELSK [CRN1 C-terminal 12 aa] | 0.679 ± 0.0071 | 0.718 ± 0.097
32 | LNNTAASTGPGR [YKE2 C-terminal 12 aa] | 0.684 ± 0.011 | 0.655 ± 0.0052
33 | PFGKKKTGLFSL [PRM10 C-terminal 12 aa] | 0.723 ± 0.036 | 0.717 ± 0.03
34 | FTRRGWSSFFKQ [PCL9 C-terminal 12 aa] | 0.684 ± 0.0086 | 0.6647 ± 0.0024

— the supplement of paper PMC10724198
